Non-standard residues stand in square brackets, D forms with d. No end group written: not given here. Cit = NC(=O)NCCC[C@H](N)C(=O)O
Columns and labels:
[1] = molecular target: T1, peptide no. 1 (human histone 2A) (human, also: biotin-labelled); assay: ELISA, Ab 0.4 ug/well
T1 construct: also called peptide 1; AAASGXGKQGGK
T1 peptide: AAASG[Cit]GKQGGK
Method: (§1) Biotin and citrulline-containing peptides derived from histone 2A were immobilized on NEUTRAVIDIN®-coated 96-well ELISA plates (0.3 μg/well). CFC-1 and CFC-0 were coated at the same concentration and served as positive and negative controls, respectively, for specific anti-citrulline reactivity and as coating controls. Non-coated wells were used to test for aspecific binding of the antibodies. […] Detection of bound anti-citrulline antibodies was performed by incubating the wells with rabbit anti-human HRP (1:2000) for 1 hour at RT followed by incubation with TMB substrate. The resulting OD (y-axis) is a measure for antibody binding.

[2] = molecular target: T2, peptide no. 3 (human histone 2A) (human, also: biotin-labelled); assay: ELISA, Ab 0.4 ug/well
T2 construct: also called peptide 3
T2 peptide: KSRSS[Cit]AGLQFP
Method: as §1

[3] = molecular target: T3, peptide no. 9 (human histone 2A) (human, also: biotin-labelled); assay: ELISA, Ab 0.4 ug/well
T3 construct: also called peptide 9
T3 peptide: DNKKT[Cit]IIPRHL
Method: as §1

[4] = molecular target: T4, peptide no. 8 (human histone 2A) (human, also: biotin-labelled); assay: ELISA, Ab 0.4 ug/well
T4 construct: also called peptide 8
T4 peptide: AGNAA[Cit]DNKKTR
Method: as §1

[5] = molecular target: T5, peptide no. 4 (human histone 2A) (human, also: biotin-labelled); assay: ELISA, Ab 0.4 ug/well
T5 construct: also called peptide 4
T5 peptide: QFPVG[Cit]VHRLLR
Method: as §1

[6] = molecular target: T6, peptide no. 12 (human histone 2A) (human, also: biotin-labelled); assay: ELISA, Ab 0.4 ug/well
T6 construct: also called peptide 12
T6 peptide: NKLLG[Cit]VTIAQG
Method: as §1

[7] = molecular target: T7, peptide no. 7 (human histone 2A) (human, also: biotin-labelled); assay: ELISA, Ab 0.4 ug/well
T7 construct: also called peptide 7
T7 peptide: GNYSE[Cit]VGAGAP
Method: as §1

[8] = molecular target: T8, peptide no. 10 (human histone 2A) (human, also: biotin-labelled); assay: ELISA, Ab 0.4 ug/well
T8 construct: also called peptide 10
T8 peptide: TRIIP[Cit]HLQLAI
Method: as §1

[9] = molecular target: T9, peptide no. 11 (human histone 2A) (human, also: biotin-labelled); assay: ELISA, Ab 0.4 ug/well
T9 construct: also called peptide 11
T9 peptide: LQLAI[Cit]NDEELN
Method: as §1

CFC-1 [10] = molecular target: T10, CFC-1; assay: ELISA, Ab 0.4 ug/well
T10 construct: Positive control for anti-citrulline reactivity; also called cfc1 XG; Cfc1-peptide
Method: as §1

[11] = molecular target: T11, peptide no. 6 (human histone 2A) (human, also: biotin-labelled); assay: ELISA, Ab 0.4 ug/well
T11 construct: also called peptide 6
T11 peptide: VHRLL[Cit]KGNYSE
Method: as §1

[12] = molecular target: T12, peptide no. 2 (human histone 2A) (human, also: biotin-labelled); assay: ELISA, Ab 0.4 ug/well
T12 construct: also called peptide 2
T12 peptide: AKAKS[Cit]SSRAGL
Method: as §1

[13] = molecular target: T13, peptide no. 5 (human histone 2A) (human, also: biotin-labelled); assay: ELISA, Ab 0.4 ug/well
T13 construct: also called peptide 5
T13 peptide: VGRVH[Cit]LLRKGN
Method: as §1

[14] = molecular target: T1, peptide no. 1 (human histone 2A); assay: ELISA, Ab 0.016 ug/well
Method: as §1

[15] = molecular target: T2, peptide no. 3 (human histone 2A); assay: ELISA, Ab 0.016 ug/well
Method: as §1

[16] = molecular target: T3, peptide no. 9 (human histone 2A); assay: ELISA, Ab 0.016 ug/well
Method: as §1

[17] = molecular target: T4, peptide no. 8 (human histone 2A); assay: ELISA, Ab 0.016 ug/well
Method: as §1

[18] = molecular target: T5, peptide no. 4 (human histone 2A); assay: ELISA, Ab 0.016 ug/well
Method: as §1

[19] = molecular target: T6, peptide no. 12 (human histone 2A); assay: ELISA, Ab 0.016 ug/well
Method: as §1

[20] = molecular target: T7, peptide no. 7 (human histone 2A); assay: ELISA, Ab 0.016 ug/well
Method: as §1

[21] = molecular target: T8, peptide no. 10 (human histone 2A); assay: ELISA, Ab 0.016 ug/well
Method: as §1

[22] = molecular target: T9, peptide no. 11 (human histone 2A); assay: ELISA, Ab 0.016 ug/well
Method: as §1

CFC-1 [23] = molecular target: T10, CFC-1; assay: ELISA, Ab 0.016 ug/well
Method: as §1

[24] = molecular target: T11, peptide no. 6 (human histone 2A); assay: ELISA, Ab 0.016 ug/well
Method: as §1

[25] = molecular target: T12, peptide no. 2 (human histone 2A); assay: ELISA, Ab 0.016 ug/well
Method: as §1

[26] = molecular target: T13, peptide no. 5 (human histone 2A); assay: ELISA, Ab 0.016 ug/well
Method: as §1

[27] = molecular target: T1, peptide no. 1 (human histone 2A); assay: ELISA, Ab 0.0032 ug/well
Method: as §1

[28] = molecular target: T4, peptide no. 8 (human histone 2A); assay: ELISA, Ab 0.0032 ug/well
Method: as §1

[29] = molecular target: T5, peptide no. 4 (human histone 2A); assay: ELISA, Ab 0.0032 ug/well
Method: as §1

[30] = molecular target: T6, peptide no. 12 (human histone 2A); assay: ELISA, Ab 0.0032 ug/well
Method: as §1

[31] = molecular target: T8, peptide no. 10 (human histone 2A); assay: ELISA, Ab 0.0032 ug/well
Method: as §1

[32] = molecular target: T9, peptide no. 11 (human histone 2A); assay: ELISA, Ab 0.0032 ug/well
Method: as §1

CFC-1 [33] = molecular target: T10, CFC-1; assay: ELISA, Ab 0.0032 ug/well
Method: as §1

[34] = molecular target: T13, peptide no. 5 (human histone 2A); assay: ELISA, Ab 0.0032 ug/well
Method: as §1

B1: RhmAb2.102 (antibody, human IgG1, lambda)
heavy: not shown
light: QSVLTQPPSMSAAPGQKVTISCSGSSSNIGNNYVSWYQQVPGTAPKLLIYDDNKRPSGIPGRFSGSKSATSATLGITGLQAGDEADYYCGSWDDNLSVVLFGGGTKLTVLGQPKAAPSVTLFPPSSEELQANKATLVCLISDFYPGAVTVAWKADSSPVKAGVETTTPSKQSNNKYAASSYLSLTPEQWKSHRSYSCQVTHEGSTVEKTVAPTECS
notes: Human IgG1 lambda; also called Rhm2.102
OD [1]: 2.8 OD450
OD [2]: 0.154 OD450
OD [3]: 0.057 OD450
OD [4]: 0.061 OD450
OD [5]: 0.564 OD450
OD [6]: 0.061 OD450
OD [7]: 0.064 OD450
OD [8]: 0.051 OD450
OD [9]: 0.064 OD450
OD (CFC-1 [10]): 3.06 OD450
OD [11]: 0.333 OD450
OD [12]: 0.136 OD450
OD [13]: 0.082 OD450
OD [14]: 0.843 OD450
OD [15]: 0.07 OD450
OD [16]: 0.064 OD450
OD [17]: 0.063 OD450
OD [18]: 0.084 OD450
OD [19]: 0.057 OD450
OD [20]: 0.061 OD450
OD [21]: 0.066 OD450
OD [22]: 0.069 OD450
OD (CFC-1 [23]): 1.46 OD450
OD [24]: 0.075 OD450
OD [25]: 0.065 OD450
OD [26]: 0.065 OD450
OD [27]: 0.3 OD450
OD [28]: 0.06 OD450
OD [29]: 0.078 OD450
OD [30]: 0.059 OD450
OD [31]: 0.068 OD450
OD [32]: 0.057 OD450
OD (CFC-1 [33]): 0.916 OD450
OD [34]: 0.063 OD450

Source: patent US20150307603A1 (MODIQUEST B V, published 2015)
